Measurements published in the supplement of paper PMC9732359.
± gives the uncertainty stated by the source.

Assay: protein stability index of a GFP-peptide fusion (yeast GPS) (PSI 1-4); higher = more stable; sorted into four equal gates, so the index is relative within each strain
How it was run: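 Peptides tiling yeast proteins in 17-residue segments were fused downstream of GFP, with Cherry expressed from the same plasmid. As a pooled library in yeast, mid-log cultures grown in leucine-free medium were sorted into four equal gates by GFP/Cherry fluorescence ratio. Gate plasmids were PCR-amplified and Illumina-sequenced, and barcodes linked reads to strains. Each peptide received a protein stability index equal to the sum of each gate's read frequency times its gate number.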

| Sequence | protein stability index (doa10∆) | protein stability index (pdr5∆) | protein stability index (san1∆) | protein stability index (ubr1∆) |
| --- | --- | --- | --- | --- |
| KPTEVNDSENNSSEEDK [ITC1] | 2.82 ± 0.058 | 2.74 ± 0.082 | 3.17 ± 0.052 | 3.3 ± 0.067 |
| KPVMEVTSSFFYRGNYT [FAS1] | 2.21 ± 0.065 | 2.11 ± 0.065 | 1.91 ± 0.12 | 2.1 ± 0.081 |
| KPYSGKLLKVCLTMFED [ECM29] | 2.18 ± 0.056 | 2.17 ± 0.058 | 2.67 ± 0.045 | 2.36 ± 0.058 |
| KQDKTLQKVENQTIKEA [YIL149C/MLP2] | 3.22 ± 0.072 | 3.15 ± 0.07 | 3.15 ± 0.071 | 3.17 ± 0.062 |
| KQGFVIYRVRVRRGNRK [RPL15A] | 1.17 ± 0.13 | 1.96 ± 0.11 | 1.29 ± 0.26 | 2.26 ± 0.089 |
| KQIDIPNFNVEIMQQKF [ECM29] | 2.4 ± 0.25 | 2.5 ± 0.16 | 3.03 ± 0.11 | 3.11 ± 0.097 |
| KQLNSLRRSGQIANDPS [SMD1] | 2.56 ± 0.09 | 3.02 ± 0.14 |  | 2.91 ± 0.07 |
| KQNNKDFRTRYIDIRTN [MTW1] | 2.69 ± 0.07 | 2.65 ± 0.072 | 2.31 ± 0.1 | 2.62 ± 0.077 |
| KQNPGLMQNMMNMFGGG [SRP54] | 2.05 ± 0.086 | 2.36 ± 0.049 | 2.37 ± 0.088 | 1.8 ± 0.042 |
| KQRLDLARQVKLLLLNT [YIL149C/MLP2] | 2.56 ± 0.059 | 2.15 ± 0.058 | 1.98 ± 0.092 | 1.88 ± 0.034 |
| KQSGFGGQTKPVFHKKA [RPL42A] | 2.74 ± 0.04 | 3.14 ± 0.053 | 2.89 ± 0.043 | 3.045 ± 0.029 |
| KQVQDFEENDHPNRVLE [COR1] | 3.1 ± 0.074 | 3.29 ± 0.1 | 3.19 ± 0.056 | 2.9 ± 0.065 |
| KREESESAAVYNGRGAR [SNF2] | 3.09 ± 0.17 | 3.02 ± 0.091 | 3.35 ± 0.057 | 3.49 ± 0.085 |
| KRFNIGADPNYRTYSER [RPR2] | 3.08 ± 0.15 | 3.4 ± 0.14 | 2.89 ± 0.28 | 3.35 ± 0.11 |
| KRKKEANEEPNTENVES [ITC1] | 3.1 ± 0.062 | 2.74 ± 0.046 | 2.78 ± 0.07 | 2.65 ± 0.034 |
| KRKVLELKKKRKIKRLE [SRP72] | 3.24 ± 0.077 | 3.2 ± 0.095 | 3.38 ± 0.1 | 3.29 ± 0.058 |
| KRLNGKRKYLDIPIDEM [SSN2] | 3.19 ± 0.13 | 2.97 ± 0.14 | 3.23 ± 0.078 | 3.14 ± 0.17 |
| KRLTEDERIEKELNTER [CDC53] |  | 2.89 ± 0.16 | 2.33 ± 0.1 | 2.31 ± 0.12 |
| KRPIESGTSSDPDTKKV [YIL149C/MLP2] | 3.35 ± 0.079 | 3.2 ± 0.053 | 3.2 ± 0.062 | 3.29 ± 0.072 |
| KRVTKVKRLLFTIRGFK [MTW1] | 2.34 ± 0.057 | 2.52 ± 0.043 | 2.14 ± 0.057 | 2.54 ± 0.042 |
| KSCEPVSISTSVKPHVV [SIR4] | 2.6 ± 0.069 | 2.97 ± 0.077 | 2.28 ± 0.11 | 2.42 ± 0.045 |
| KSDSQYRFYEYIYSQET [MED1] | 2.81 ± 0.068 | 2.44 ± 0.061 | 2.74 ± 0.12 | 2.58 ± 0.07 |
| KSHKQTIVTGGGSGNGD [RPP1] | 3.15 ± 0.27 | 3.55 ± 0.15 |  | 3.44 ± 0.2 |
| KSKAEELTQVPSARQKY [UBP6] | 2.19 ± 0.14 | 2.81 ± 0.12 | 2.38 ± 0.14 | 2.37 ± 0.16 |
| KSKLDQDSTSENVKIIN [RPN2] | 3.39 ± 0.07 | 3.3 ± 0.065 | 2.97 ± 0.074 | 3.18 ± 0.08 |
| KSLDAETEAEEDHMLKK [RPO21] | 3.15 ± 0.29 | 2.56 ± 0.21 | 3.19 ± 0.1 | 3.16 ± 0.094 |
| KSLKNNFYRPLLRSVLV [YML103C/NUP188] | 1.94 ± 0.051 | 1.87 ± 0.075 | 2.04 ± 0.085 | 2.29 ± 0.051 |

| Sequence | protein stability index (doa10∆) | protein stability index (pdr5∆) | protein stability index (san1∆) | protein stability index (ubr1∆) |
| --- | --- | --- | --- | --- |
| KSMITSEGEQKSAEGNN [YAR002W/NUP60] | 3.2 ± 0.047 | 3.19 ± 0.045 | 3.25 ± 0.035 | 3.17 ± 0.041 |
| KSTPEGTLWAHVLKTVD [SNU114] | 2.1 ± 0.058 | 1.93 ± 0.048 | 2.43 ± 0.072 | 2.27 ± 0.038 |
| KTASLGNSKDDLLDMIQ [ISW2] | 1.62 ± 0.066 | 2.22 ± 0.13 | 3.36 ± 0.059 | 1.94 ± 0.059 |
| KTDTKVSFRTHNSHLSL [SRP21] | 3.03 ± 0.059 | 3.06 ± 0.053 | 2.92 ± 0.053 | 3.15 ± 0.048 |
| KTESQDVETRVQNLEQT [DPB4] | 3.49 ± 0.091 | 3.32 ± 0.065 | 3.2 ± 0.047 | 3.24 ± 0.048 |
| KTEYVLNDLNHLLVQLQ [REC8] |  | 3.02 ± 0.25 |  | 3.02 ± 0.094 |
| KTHRGLRKVACIGAWHP [RPL3] | 1.41 ± 0.064 | 3.19 ± 0.12 | 2.23 ± 0.087 | 2.92 ± 0.076 |
| KTKLWGFKWLNKLDEYH [LIN1] |  |  |  | 3.22 ± 0.2 |
| KTNIIEKAMDYAISIEN [RPN12] | 3.13 ± 0.18 | 3.25 ± 0.12 | 2.95 ± 0.1 | 3.45 ± 0.12 |
| KTQCPNYDTCGGESAYF [RPC11] | 3.21 ± 0.16 | 2.81 ± 0.26 | 3.24 ± 0.073 | 2.94 ± 0.15 |
| KTQFSWQYYYYTLTEEG [RPS10A] | 2.06 ± 0.065 | 2.33 ± 0.052 | 2.59 ± 0.054 | 2.35 ± 0.058 |
| KTRGPFHFRAPSRIFYK [RPL16A] | 2.99 ± 0.08 | 2.6 ± 0.062 | 2.56 ± 0.061 | 2.77 ± 0.057 |
| KTSCVVEKRIGKIVSQR [RGR1] | 2.76 ± 0.061 | 2.77 ± 0.048 | 3.12 ± 0.045 | 2.85 ± 0.036 |
| KTSLMDLLVIDSHKRIP [SNU114] | 2.43 ± 0.069 | 2.73 ± 0.078 | 2.74 ± 0.063 | 2.41 ± 0.054 |
| KTVCAIALILAIQMVDP [SMC3] | 1.11 ± 0.092 | 1.1 ± 0.072 | 2.08 ± 0.23 | 1.87 ± 0.081 |
| KTWLRNQEDEKNLQRES [RTT102] |  |  |  | 3.23 ± 0.19 |
| KVDWAREHFEKTVAVDS [RPL3] | 1.8 ± 0.18 |  | 1.54 ± 0.15 | 1.9 ± 0.15 |
| KVEKRVLGLTILRGEQI [SMB1] | 1.69 ± 0.078 | 2.15 ± 0.12 | 2 ± 0.17 | 1.95 ± 0.091 |
| KVEYKIVHDDPASDDIL [ITC1] | 3.05 ± 0.087 | 3.09 ± 0.086 | 3.05 ± 0.17 | 3.21 ± 0.091 |
| KVIEQPITSETAMKKVE [RPL25] | 3.02 ± 0.092 | 2.94 ± 0.066 | 2.88 ± 0.066 | 2.93 ± 0.074 |
| KVISSDARGVIGVIAGG [RPL2A] | 2.81 ± 0.086 | 2.82 ± 0.091 | 2.85 ± 0.1 | 2.84 ± 0.12 |
| KVLLPSINISCVQLIKC [SWI1] | 1.27 ± 0.064 | 1.47 ± 0.051 | 1.17 ± 0.18 | 1.49 ± 0.051 |
| KVLTALSRLQKSGRING [SMC4] |  | 3.43 ± 0.2 | 3.29 ± 0.083 | 3.43 ± 0.19 |
| KVPQQAAGKRISHIEKR [SMC1] | 3.04 ± 0.11 | 3.14 ± 0.12 | 2.97 ± 0.095 | 3.15 ± 0.12 |
| KVSPSMCGVIVKQYNKK [SIN4] | 3 ± 0.19 | 2.98 ± 0.15 | 2.58 ± 0.15 | 3.15 ± 0.14 |
| KVTSTLLEQDTSTEKLY [PRE9] | 2.7 ± 0.056 | 3 ± 0.066 | 2.65 ± 0.063 | 2.63 ± 0.08 |
| KVVNFWLLHNGFSTGIG [RPO21] | 3.17 ± 0.16 | 2.25 ± 0.1 | 2.51 ± 0.13 | 1.37 ± 0.094 |
